Data published in publication PMC6751209.

Molecular target: 53BP1 (UniProt Q12888)
Assay: FLAG-53BP1 IP, Myc-PP4R3β immunoblot
Conditions: reference: wild type, mitotic cells; sites S840

binding against the reference: weaker
Substance: PP4R3β (from UniProt Q5MIZ7) S840A, mitotic cells
